{
  "source": "paper PMC5709738",
  "about": "(The EMBO Journal, 2017)",
  "key": {"[1]": {"biological_target": "COMA-MIND (K. lactis COMA bound with MIND-C1) (Kluyveromyces lactis) (UniProt Q6CUE5)", "experiment": "native MS; nanoflow electrospray of intact assemblies in 200 mM ammonium acetate pH 6.7-7.3 or 7.4; higher micromolar concentrations (COMA ~3 or ~6 uM; COMA-Nkp1-Nkp2 ~3 uM)"}, "S. cerevisiae clones": {"system": "S. cerevisiae clones", "experiment": "dilution-series growth assay on solid YPD agar with benomyl", "assay_type": "cell-based", "conditions": "20 μg/ml benomyl", "text": "For vegetative growth assays on solid agar, we serially diluted our mitotically cycling S. cerevisiae clone suspensions to an absorbance at 600 nm (A600) of 0.4, in 96‐well plates (Nunc; Thermo Fisher Scientific). From this suspension, we sequentially fourfold diluted suspensions with minimal synthetic complete medium row‐wise (Fig 8A and C; Appendix Fig S9A, B and E). We spotted S. cerevisiae suspensions with a sterilized 48‐head metal pinner (V & P Scientific, Inc.). We prepared our solid YPD agar that contained benomyl with a final concentration of 20 μg/ml benomyl (Sigma‐Aldrich). We did our growth experiments with S. cerevisiae clones that encode Mad1 fused to an auxin‐inducible degron (Appendix Fig S9E) on solid yeast‐extract peptone (YEP) agar with 2% (w/v) raffinose and 2% (w/v) galactose, and 1 mM of the synthetic auxin analogue 1‐napthylic acetic acid (NAA; Carl Roth), similarly as described (Nishimura et al, 2009). To prepare S. cerevisiae extracts for our Western blot that we show an image in Appendix Fig S9F, we grew cultures in YEP with 2% (w/v) raffinose and 2% (w/v) galactose to an A600 of 0.3. After the addition of NAA to a concentration of 1 mM, we collected cells from cultures after specific time points (Appendix Fig S9F) by centrifugation."}, "[2]": {"biological_target": "COMA (K. lactis, full length: Ame1, Ctf19, Mcm21, Okp1) (Kluyveromyces lactis) (UniProt Q6CUE5)", "experiment": "native MS; nanoflow electrospray of intact assemblies in 200 mM ammonium acetate pH 6.7-7.3 or 7.4; higher micromolar concentrations (COMA ~3 or ~6 uM; COMA-Nkp1-Nkp2 ~3 uM)"}, "[3]": {"biological_target": "COMA (K. lactis, full length: Ame1, Ctf19, Mcm21, Okp1) (Kluyveromyces lactis) (UniProt Q6CUE5)", "experiment": "SEC-MALS; COMA injected at ~43 uM (COMA dimer) on Superdex 200 10/300; max. dimeric COMA concentration in the principal peak 2.4 uM"}, "[4]": {"biological_target": "T1, full-length Ctf19-Mcm21 (K. lactis) (Kluyveromyces lactis, UniProt Q6CRN7 1-270; Q6CVQ9 1-293)", "T1 chain 1": "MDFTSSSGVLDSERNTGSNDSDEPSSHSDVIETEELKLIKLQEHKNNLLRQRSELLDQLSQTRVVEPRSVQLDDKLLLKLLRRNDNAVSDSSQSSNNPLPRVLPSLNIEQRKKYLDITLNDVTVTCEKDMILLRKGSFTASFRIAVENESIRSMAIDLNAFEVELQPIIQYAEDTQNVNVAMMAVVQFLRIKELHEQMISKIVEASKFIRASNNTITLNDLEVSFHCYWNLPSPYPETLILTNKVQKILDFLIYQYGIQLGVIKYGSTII", "T1 chain 2": "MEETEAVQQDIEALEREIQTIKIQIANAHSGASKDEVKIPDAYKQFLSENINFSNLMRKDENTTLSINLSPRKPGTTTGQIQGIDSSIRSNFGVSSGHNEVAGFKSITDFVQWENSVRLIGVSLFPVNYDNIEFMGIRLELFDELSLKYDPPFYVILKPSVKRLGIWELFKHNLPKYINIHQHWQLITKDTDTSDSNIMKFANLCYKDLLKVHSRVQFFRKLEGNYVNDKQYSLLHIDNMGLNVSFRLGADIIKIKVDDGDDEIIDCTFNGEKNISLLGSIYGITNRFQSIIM", "experiment": "MST"}, "[5]": {"biological_target": "T2, full-length Ctf19-Mcm21 (K. lactis) (Kluyveromyces lactis, UniProt Q6CRN7 1-270; Q6CVQ9 1-293)", "T2 construct": "Ctf19 of Kluyveromyces lactis; Mcm21 of Kluyveromyces lactis; for microscale thermophoresis it was labelled on lysine side chains with the red dye NT-647-NHS; also stands for the Ctf19-Mcm21 subassembly of COMA in nanoflow mass spectra; source: E. coli BL21 Rosetta 2(DE3)pLysS, co-expressed, purified", "T2 sequence (looked up) 1": "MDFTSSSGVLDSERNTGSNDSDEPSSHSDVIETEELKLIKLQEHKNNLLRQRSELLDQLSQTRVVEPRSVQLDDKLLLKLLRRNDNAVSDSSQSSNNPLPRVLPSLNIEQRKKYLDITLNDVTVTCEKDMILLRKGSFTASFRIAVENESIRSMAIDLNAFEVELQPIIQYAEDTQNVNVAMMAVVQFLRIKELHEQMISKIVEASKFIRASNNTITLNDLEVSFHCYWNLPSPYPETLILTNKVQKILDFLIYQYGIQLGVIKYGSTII", "T2 sequence (looked up) 2": "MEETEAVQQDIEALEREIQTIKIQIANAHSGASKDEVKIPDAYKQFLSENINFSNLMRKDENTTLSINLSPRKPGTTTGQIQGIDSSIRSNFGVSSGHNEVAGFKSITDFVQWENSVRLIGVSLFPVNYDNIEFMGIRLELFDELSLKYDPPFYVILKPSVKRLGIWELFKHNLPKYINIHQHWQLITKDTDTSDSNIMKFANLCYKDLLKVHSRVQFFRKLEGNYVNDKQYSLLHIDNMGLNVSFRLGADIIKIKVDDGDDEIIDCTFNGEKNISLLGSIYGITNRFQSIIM", "experiment": "MST; Ctf19-Mcm21 labelled with NT-647-NHS on lysines, ~27 nM; dilution series of peptide; 22-25°C; ITC/MST buffer; three dilution series", "conditions": "both partners purified"}},
  "data": [
    {"molecule": "COMA-MIND (K. lactis COMA bound with MIND-C1) (from UniProt Q6CUE5 1-292; Q6CRN7 1-270; Q6CVQ9 1-293; Q6CJY0 1-383) (complex)", "values": [
      {"measurement": "stoichiometry N", "setting": "[1]", "result": 2}
    ]},
    {"molecule": "CCCCNC(=O)n1c(NC(=O)OC)nc2ccccc21", "note": "[benomyl]", "values": [
      {"measurement": "benomyl sensitivity (growth)", "setting": "S. cerevisiae clones; Okp1_cmΔ and Okp1_cmΔnnΔ mutants, solid YPD agar, elevated temperature", "result": "sensitive to benomyl"},
      {"measurement": "growth in the presence of benomyl", "setting": "S. cerevisiae clones; Okp1_cmΔ cnn1Δ mutant compared with Okp1_cmΔ or cnn1Δ, 37°C", "result": "reduced growth"}
    ]},
    {"molecule": "COMA (K. lactis, full length: Ame1, Ctf19, Mcm21, Okp1) (from UniProt Q6CUE5 1-292; Q6CRN7 1-270; Q6CVQ9 1-293; Q6CJY0 1-383) (complex)", "values": [
      {"measurement": "stoichiometry N", "setting": "[2]", "result": 2},
      {"measurement": "stoichiometry N", "setting": "[3]", "result": 2}
    ]},
    {"molecule": "SNEIYQQDKIDFALKLKTDF (peptide, UniProt Q6CJY0 318-337, looked up, source: synthetic peptide (Protein Chemistry core facility, IMP, Vienna))", "note": "[Okp1 peptide variant N330A]", "values": [
      {"measurement": "Kd", "setting": "[4]", "result": 5.51, "unit": "µM"},
      {"measurement": "binding result", "setting": "[5]", "result": "binds"}
    ]}
  ]
}
